Experimental data reported in PMC10050235, “Structural basis of Ty1 integrase tethering to RNA polymerase III for targeted retrotransposon integration” (Nature Communications, 2023).
Each block holds one molecule with its values, some of them ahead of it.

T1: Pol III subunit C160 (within purified Pol III) (S. cerevisiae (endogenous in strain …, UniProt P04051 1-1460))
T1 construct: RNA polymerase III largest subunit C160, S. cerevisiae; Subunit of m2, written alone for the pairs that touch in the structures; source: endogenous, S. cerevisiae strain SC1613, purified as part of Pol III (IgG Sepharose, TEV elution, Mono-Q)
T1 sequence (looked up): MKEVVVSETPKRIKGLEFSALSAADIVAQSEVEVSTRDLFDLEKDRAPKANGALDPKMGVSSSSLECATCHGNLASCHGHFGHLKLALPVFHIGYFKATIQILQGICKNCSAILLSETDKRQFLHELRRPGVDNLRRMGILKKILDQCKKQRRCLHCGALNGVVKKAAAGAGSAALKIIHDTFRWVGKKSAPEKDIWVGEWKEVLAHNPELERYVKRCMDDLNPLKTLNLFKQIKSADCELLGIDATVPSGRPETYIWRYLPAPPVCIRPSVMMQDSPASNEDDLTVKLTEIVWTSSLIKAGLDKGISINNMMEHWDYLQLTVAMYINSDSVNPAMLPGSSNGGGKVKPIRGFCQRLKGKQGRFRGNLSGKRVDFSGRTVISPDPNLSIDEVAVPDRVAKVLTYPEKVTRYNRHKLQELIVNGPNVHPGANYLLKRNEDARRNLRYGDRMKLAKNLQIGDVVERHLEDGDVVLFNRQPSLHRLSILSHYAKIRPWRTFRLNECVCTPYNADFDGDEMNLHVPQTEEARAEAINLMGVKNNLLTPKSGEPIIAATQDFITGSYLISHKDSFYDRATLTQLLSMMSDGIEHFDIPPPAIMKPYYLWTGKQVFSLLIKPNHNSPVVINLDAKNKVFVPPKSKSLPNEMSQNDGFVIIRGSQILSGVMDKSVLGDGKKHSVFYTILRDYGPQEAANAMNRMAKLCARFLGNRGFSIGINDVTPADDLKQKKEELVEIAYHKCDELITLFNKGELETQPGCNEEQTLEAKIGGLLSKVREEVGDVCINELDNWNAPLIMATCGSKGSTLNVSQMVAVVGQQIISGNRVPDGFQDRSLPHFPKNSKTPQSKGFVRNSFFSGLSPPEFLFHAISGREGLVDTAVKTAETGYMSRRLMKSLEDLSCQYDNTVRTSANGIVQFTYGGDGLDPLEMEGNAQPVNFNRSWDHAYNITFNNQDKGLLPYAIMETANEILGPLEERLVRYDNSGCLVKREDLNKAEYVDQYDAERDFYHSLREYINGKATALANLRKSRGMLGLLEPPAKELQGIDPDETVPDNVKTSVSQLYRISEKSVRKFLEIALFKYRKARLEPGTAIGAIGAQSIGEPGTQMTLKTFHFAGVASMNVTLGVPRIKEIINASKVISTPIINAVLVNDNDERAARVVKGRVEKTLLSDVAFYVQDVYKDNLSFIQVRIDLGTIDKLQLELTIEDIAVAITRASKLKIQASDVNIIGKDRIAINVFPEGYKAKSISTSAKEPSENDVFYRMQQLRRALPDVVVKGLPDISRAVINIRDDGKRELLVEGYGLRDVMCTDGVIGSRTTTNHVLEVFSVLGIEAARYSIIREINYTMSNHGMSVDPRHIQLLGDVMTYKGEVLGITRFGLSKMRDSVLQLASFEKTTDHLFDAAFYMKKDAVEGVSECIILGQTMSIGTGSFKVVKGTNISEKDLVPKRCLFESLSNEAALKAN

T2: Pol III subunit C37 (within purified Pol III) (S. cerevisiae (endogenous in strain …, UniProt P36121 1-282))
T2 construct: RNA polymerase III subunit C37, S. cerevisiae; Subunit of m2, written alone for the pairs that touch in the structures; source: endogenous, S. cerevisiae strain SC1613, purified as part of Pol III (IgG Sepharose, TEV elution, Mono-Q)
T2 sequence (looked up): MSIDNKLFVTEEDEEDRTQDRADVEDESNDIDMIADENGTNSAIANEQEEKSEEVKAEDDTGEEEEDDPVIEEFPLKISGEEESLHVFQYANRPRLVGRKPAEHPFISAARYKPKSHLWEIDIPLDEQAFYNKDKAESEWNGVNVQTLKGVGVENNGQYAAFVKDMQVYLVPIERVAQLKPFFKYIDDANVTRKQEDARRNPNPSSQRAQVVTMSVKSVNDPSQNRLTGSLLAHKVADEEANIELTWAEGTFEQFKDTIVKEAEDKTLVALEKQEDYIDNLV

T3: Pol III subunit C128 (within purified Pol III) (S. cerevisiae (endogenous in strain …, UniProt P22276 1-1149))
T3 construct: RNA polymerase III second largest subunit C128, S. cerevisiae; Subunit of m2, written alone for the pairs that touch in the structures; source: endogenous, S. cerevisiae strain SC1613, purified as part of Pol III (IgG Sepharose, TEV elution, Mono-Q)
T3 sequence (looked up): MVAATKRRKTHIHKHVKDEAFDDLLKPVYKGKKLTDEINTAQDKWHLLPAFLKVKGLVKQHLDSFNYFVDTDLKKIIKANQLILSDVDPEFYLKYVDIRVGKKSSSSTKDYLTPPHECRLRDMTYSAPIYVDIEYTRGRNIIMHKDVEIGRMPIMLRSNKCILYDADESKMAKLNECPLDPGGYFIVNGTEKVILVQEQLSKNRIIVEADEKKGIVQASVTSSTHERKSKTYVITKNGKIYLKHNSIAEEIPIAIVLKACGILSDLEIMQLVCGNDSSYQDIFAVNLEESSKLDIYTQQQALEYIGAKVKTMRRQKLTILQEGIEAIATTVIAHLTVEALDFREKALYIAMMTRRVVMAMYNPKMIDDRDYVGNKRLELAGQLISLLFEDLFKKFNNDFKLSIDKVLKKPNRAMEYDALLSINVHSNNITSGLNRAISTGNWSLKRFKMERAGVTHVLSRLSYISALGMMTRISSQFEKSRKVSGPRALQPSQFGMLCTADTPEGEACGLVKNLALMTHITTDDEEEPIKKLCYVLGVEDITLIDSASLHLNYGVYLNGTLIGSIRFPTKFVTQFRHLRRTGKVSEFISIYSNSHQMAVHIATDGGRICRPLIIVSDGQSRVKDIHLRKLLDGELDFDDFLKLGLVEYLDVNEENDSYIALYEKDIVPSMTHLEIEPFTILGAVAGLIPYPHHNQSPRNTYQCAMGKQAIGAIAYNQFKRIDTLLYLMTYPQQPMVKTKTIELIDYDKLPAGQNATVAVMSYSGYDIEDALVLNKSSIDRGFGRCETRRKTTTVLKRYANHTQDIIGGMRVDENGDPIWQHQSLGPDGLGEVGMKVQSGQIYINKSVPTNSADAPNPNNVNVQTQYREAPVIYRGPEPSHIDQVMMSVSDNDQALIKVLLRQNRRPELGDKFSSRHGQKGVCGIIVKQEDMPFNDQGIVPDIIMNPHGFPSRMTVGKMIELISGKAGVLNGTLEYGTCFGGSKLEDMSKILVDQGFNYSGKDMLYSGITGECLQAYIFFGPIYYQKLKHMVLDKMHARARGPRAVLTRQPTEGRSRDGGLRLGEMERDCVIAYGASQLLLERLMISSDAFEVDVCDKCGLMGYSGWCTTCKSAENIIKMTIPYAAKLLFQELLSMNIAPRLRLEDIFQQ

B1: Pol III subunit C53 (within purified Pol III) (natural protein, UniProt P25441 1-422, looked up)
chain: MSSNKGNGRLPSLKDSSSNGGGSAKPSLKFKPKAVARKSKEEREAAASKVKLEEESKRGNDKKHFNNKNKRVTGAGGQQRRMAKYLNNTHVISSGPLAAGNFVSEKGDLRRGFIKSEGSGSSLVQKGLETIDNGAESSENEAEDDDNEGVASKSKKKFNMGKEFEARNLIEDEDDGESEKSSDVDMDDEEWRSKRIEQLFPVRPVRVRHEDVETVKREIQEALSEKPTREPTPSVKTEPVGTGLQSYLEERERQVNEKLADLGLEKEFQSVDGKEAAAELELLNADHQHILRKLKKMNNKPERFMVFQLPTRLPAFERPAVKEEKEDMETQASDPSKKKKNIKKKDTKDALSTRELAGKVGSIRVHKSGKLSVKIGNVVMDIGKGAETTFLQDVIALSIADDASSAELLGRVDGKIVVTPQI
notes: RNA polymerase III subunit C53, S. cerevisiae; N-terminal low-complexity region C53-Nt is residues 1-274; Subunit of m2, written alone for the pairs that touch in the structures; source: endogenous, S. cerevisiae strain SC1613, purified as part of Pol III (IgG Sepharose, TEV elution, Mono-Q)
B2: Pol III subunit C11 (within purified Pol III) (natural protein, UniProt Q04307 1-110, looked up)
chain: MLSFCPSCNNMLLITSGDSGVYTLACRSCPYEFPIEGIEIYDRKKLPRKEVDDVLGGGWDNVDQTKTQCPNYDTCGGESAYFFQLQIRSADEPMTTFYKCVNCGHRWKEN
notes: RNA polymerase III subunit C11, S. cerevisiae; two Zn-ribbons (residues 1-36 and 64-110) joined by a linker (37-63); Subunit of m2, written alone for the pairs that touch in the structures; source: endogenous, S. cerevisiae strain SC1613, purified as part of Pol III (IgG Sepharose, TEV elution, Mono-Q)

Key:
[1] = biological target: RNA polymerase III (Pol III), 17 subunits, isolated from yeast (S. cerevisiae (endogenous in strain SC1613)) (UniProt P04051); experiment: native gel or EMSA; recombinant IN1 mixed with Pol III isolated from yeast, free of nucleic acids; native gel electrophoresis
[2] = biological target: T1, Pol III subunit C160 (within purified …); experiment: cryo-EM structure; Pol III and IN1 both at 0.5 uM in 20 mM HEPES-NaOH pH 7.5, 170 mM NaCl, 2 mM DTT, 30 min at 4 °C; crosslinked with 0.06% glutaraldehyde; no nucleic acids (maps A-C); conditions: both partners purified
[3] = biological target: T1, Pol III subunit C160 (within purified …); experiment: cryo-EM structure; Pol III-DNA (0.4 uM, mismatched transcription bubble) mixed with 0.6 uM IN1, 30 min at 20 °C in 10 mM Hepes pH 7.5, 150 mM NaCl, 5 mM MgCl2, 5 mM DTT; 8 mM CHAPSO on the grid (map D); conditions: both partners purified
[4] = biological target: T2, Pol III subunit C37 (within purified …); experiment: cryo-EM structure; Pol III and IN1 both at 0.5 uM in 20 mM HEPES-NaOH pH 7.5, 170 mM NaCl, 2 mM DTT, 30 min at 4 °C; crosslinked with 0.06% glutaraldehyde; no nucleic acids (maps A-C); conditions: both partners purified
[5] = biological target: T3, Pol III subunit C128 (within purified …); experiment: as above; conditions: both partners purified
[6] = biological target: B1; experiment: as above; conditions: both partners purified

stoichiometry N [1]: 1
Molecule: Ty1 integrase (IN1), recombinant (from UniProt Q12414 583-1217) (enzyme)

Molecule: B1
binding result [2]: binds

Molecule: B2
binding result [3]: binds | binding result [4]: binds | binding result [5]: binds | binding result [6]: binds
